Measured values published in the nanobody polyreactivity screen of Harvey et al. (2022).

Test: yeast display, Sf9 membrane polyspecificity reagent, FACS + sequencing; frameworks hold sequencing errors
Method in brief: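 Sorting gates, low and high (top ~1%), were placed on anti-HA fluorescence to track expression and on streptavidin fluorescence to track reagent binding. A clone's polyreactivity label is taken from the gate it came out of. The reagent was 10% biotinylated, detergent-solubilized Sf9 membrane, applied for 1 hour at 4 °C to galactose-induced yeast display cells.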

| Sequence | polyreactivity (PSR sort gate) |
| --- | --- |
| QVQLVESGGGLVQAGGRLRLSCAASGSIFSIYPMGWYRQAPGKERDFVASITVTDGSTYYADSVKGRFTISRDNAKNTVYLQMNSLKPEDTADYYCNADGWYALYEWLAVSGYYWGQGTQVTVSS | low polyreactivity |
| QVQLVESGGGLVQAGGRLRLSCAASGSIFSRNAMGRYRQATGKESELVAAISRGGSTNYADSVKGRFTISRDNAKNTVYLQMNSLKPEDTAVYYCANVGRRSWYRWLGPLWYGGMDYWGQGTQVTVSS | low polyreactivity |
| QVQLVESGGGLVQAGGRLRLSCAASGSIFTVYSMGWYRQAPGKERELVASIRFSSGRTYYADSVKGRFTISRDNAKNTVYLQMNSLKPEDTAVYYCAAETVSWYRYYYWGQGTQVTVSS | high polyreactivity |
| QVQLVESGGGLVQAGGRLRLSCAASGSIFYSNAMGWYRQAPGKEREFVAAISAGGGSTYYADSVKGRFTISRDNAKNTVYLQMNSMKPEDTAVYFCAAQPYKIIYPYDYWGQGTQVTVSS | low polyreactivity |
| QVQLVESGGGLVQAGGRLRLSCAASGSIILFKDMGWYGQAPGKERELVADITWSGGSTYYADSVKGRFTISCDNAKNTVYLQMHSLKPEDTAVDYCADDPDYYFTRGNYQWGYYWGQGTQVTVSS | low polyreactivity |
| QVQLVESGGGLVQAGGRLRLSCAASGSTFFAYAMGWYRQAPGKQRELVAAITGRGSTYYADSVKGRFTISRDNAKNTVYLQMNSLKAEDTAVYYCAAQRSRRYYRLDFWGQGTQVTVSS | high polyreactivity |
| QVQLVESGGGLVQAGGRLRLSCAASGSTFGTYAMGWYRHAPGKERELVAAITRSGGSTYYADSVKGRFTISRDNAKNTVYLQMNSLKPDDTAVFYCAAVSKGYYYWGQGTQVTVSS | high polyreactivity |
| QVQLVESGGGLVQAGGRLRLSCAASGSTFGYYAMGWYRQAPGKERELVAAITFSVGGTYYADSVKGRFTISRDNAKNTVYLQMNSLKPEDTAVYYCNVDYYVPPAGVTRTGDDVYWGKGTQVTVSS | low polyreactivity |
| QVQLVESGGGLVQAGGRLRLSCAASGSTFLQNAMGWYRQAPGKEREFVAAISRSGGSTYYADSVKGRFTISRDNAKNTVYLQMNSLKPEDTAVYYCARRYWPGSAYWIYDYWGQGTQVTVSS | high polyreactivity |
| QVQLVESGGGLVQAGGRLRLSCAASGSTFLVYAMGWYRQAPGKERELVAAIDSGVSTYYADSVKGLFTISRDNAKNTVYLQMNSLKPEDTAVYYCNGYDYWGQGTQVTVSS | low polyreactivity |
| QVQLVESGGGLVQAGGRLRLSCAASGSTFRSNVMGRYRQATGKERELVAAITSGSITNYADSVKGRFTISRDNAKNTVYLQMNSLKPEDTAVYYCAVETYVYGRMGYLGQGTQVTVSS | high polyreactivity |
| QVQLVESGGGLVQAGGRLRLSCAASGSTLEINGMGWYRQAPGKEREFVADISIGGDTNYADSVKGRFTISRDNAKNTEMNSLKPEDTAVYYCNTDYFGSLVVVIFDYWGQGTQVSVSS | low polyreactivity |
| QVQLVESGGGLVQAGGRLRLSCAASGSTLYAYGMGWYRQAPGKERELVAAIRTGGSTYYADSVKGRFTISRDNAKITVYLQMNSLKPEDTAVYYCAADHGYQYGYWGQGTQVTVSS | low polyreactivity |
| QVQLVESGGGLVQAGGRLRLSCAASGSTSVYYARGWYRQAPGKERELVAGITSGGNTNYADSVKGRFTISRDNAKNTVYFQMISLNPEDTSVYYCNAVYIVTVGWIRLGSYYYWGQGTQVTVSS | low polyreactivity |
| QVQLVESGGGLVQAGGRLRLSCAASGSTVVFNAMGWYRQAPGKERELVAAISKSGGSTYYADSVKGRFTISRDNAKNTVYLQMNSLKPEDTAVYYCNRVSRKILDGDYDYWGQGTQVTVSS | high polyreactivity |
| QVQLVESGGGLVQAGGRLRLSCAASGYIFGWNAMGWYRQAPGKERELVAAISSGGNTKYADSVKGRFTISRDNAKNTVYLQMNSLKPEDTAVYYCNADFRVYIPHVPYFVDFDYWGQGTQVTVSS | low polyreactivity |
| QVQLVESGGGLVQAGGRLRLSCAATGRTFLAYAMGWYREAPGKERELVAAITIGGGTYADSVKGRFTISRDNAKNTVYLQMNSLKQEDTAVYYCAKPGWYDGDYWGQGTQVTVSS | low polyreactivity |
